Positions count from the first letter of the chain named.
T1: human CD19 protein with a biotinylated AviTag (Acrobiosystems) (human, UniProt P15391 20-291, biotinylated AviTag)
T1 construct: Captured on streptavidin-coated microplate wells; also called biotinylated-AviTag-CD19; hCD19; not shown: AviTag
T1 sequence (looked up): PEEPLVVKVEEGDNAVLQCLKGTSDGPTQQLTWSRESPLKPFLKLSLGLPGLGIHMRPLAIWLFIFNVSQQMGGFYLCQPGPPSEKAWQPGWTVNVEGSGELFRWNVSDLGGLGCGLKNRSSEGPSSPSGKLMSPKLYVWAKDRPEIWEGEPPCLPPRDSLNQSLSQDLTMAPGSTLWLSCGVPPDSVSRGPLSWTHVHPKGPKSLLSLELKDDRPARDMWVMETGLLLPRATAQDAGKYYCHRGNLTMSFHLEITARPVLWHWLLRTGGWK

B1: scFv 39 (scFv)
scFv: QSVLTQPPSVSGSPGQRVTISCSGTTKNIGIVGASWYQQLPGKAPKLLVHSDGFRPSGVPDRFSASNSGDSDILTITGLQAEDEADYYCQSFDTTLDAHVFGSGTQLTVLGGGSSRSSSSGGGGSGGGGEVPLVESGGDLVKPGGSLRLSCVASGFTFSSYGMSWVRQSPGKGLQWVAGITYDGSNTYYTDTVRGRFTISRDNARNTVYLQMNSLRAEDTAVYYCVASPLYGTYGFDYWGHGTSVFVSSASTTAPSVTSGQAGQHHHHHHGAYPYDVPDYAS
notes: Canine scFv (VL-linker-VH); also called P3-29
B2: scFv 41 (scFv)
scFv: QPVLTQPPSVSVSLGQTATISCSGESLSKYYAQWFQQKAGQAPVLVIYKDTERPSGIPDRFSGSSSGNTHTLTISGARAEDEADYYCESAVSTETVVFGGGTHLTVLGGGSSRSSSSGGGGSGGGGEVQLVETGGDLVMPAGSLRLSCVASGFTFSSSVMSWVRQAPGKGLEWVAGINGGGSFAAYGDAVKGRFTISRDNAKNTLYLQMNSLRAEDTAMYYCVGGGYMDFWGPGTSLFVSSESPSPPNLTSGQAGQHHHHHHGAYPYDVPDYAS
notes: Canine scFv (VL-linker-VH); also called P3-08A; P3-08B
B3: scFv 36 (scFv)
scFv: QSVLTQPTSVSGSLGQRVTISCSGSTNNIGIVGASWYQQLPGKAPKLLVYSDGDRPSGVPDRFSGSNSGNSDTLTITGLQAEDEADYYCQSFDTTLDAYVFGSGTQLTVLGGGSSRSSSSGGGGSGGGGEEQLVEFGGGLVRPGGSLRLSCVASGFTFSSYGMTWVRQSPGKGLQWVATISDTGSTYYADTVKGRFSISRDNAKNTLYLQMNSLRADDTALYYCTKDLGVWGMDNWGPGTSLFVSSASTTAPSVTSGQAGQHHHHHHGAYPYDVPDYAS
notes: Canine scFv (VL-linker-VH); also called P3-25
B4: scFv 29 (scFv)
scFv: QSVLNQPPSVSVSLGQTATISCSGESLNKYYTQWFQQKAGQAPVLVIYKDTERPSGIPDRFSGSSSGNTHTLTISGARAEDEADYYCESVDSTDTYVFGSGTQLTILGGGSSRSSSSGGGGSGGGGEVHLVESGGDLVKPGGSLRLSCVGSGFTFSSYWMSWVRQAPGKGLQWIADISDSGSSTDYADAVKGRFTISRDNAKNTLYLQMNSLRAEDTAMYYCARGLGMDYWGHGTSLFVSSASTTAPSVTSGQAGQHHHHHHGAYPYDVPDYAS
notes: Canine scFv (VL-linker-VH); also called P3-51
B5: scFv 26 (scFv)
scFv: SSVLTQPPSVSVSLGQTATISCSGESLSKYYTQWFQQKAGQAPILVIYKDTERPSGIPDRFSGSSSGNTHTLTISGARAEDEADYYCESLVDSDAYMFGSGTQLTVLGGGSSRSSSSGGGGSGGGGEVQLVETGGDLVKPGGSLRLSCVGSGFTFSSYWMSWVRQAPGKGLQWIADISDSGSSTDYADAVKGRFTISRDNAKNTLYLQMNSLRAEDTAMYYCARGLGMDYWGHGTSLFVSSASTTAPSVTSGQAGQHHHHHHGAYPYDVPDYAS
notes: Canine scFv (VL-linker-VH); also called P3-03
B6: scFv 31 (scFv)
scFv: QSALTQPSSVSVSLGQTATISCSGESLTKYYVQWFQQKAGQAPVLVIYRDTERPSGIPDRFSGSSSGNTHTLTISGARAEDEADYYCESMDGREAYVFGSGTQLTVLGGGSSRSSSSGGGGSGGGGEVQLVESGGDLVKPGGSLRLSCVASGFTFSSYWMSWVRQAPGKGLQWIADISDSGSSTDYADAVKGRFTISRDNAKNTLYLQMNSLRAEDTAMYYCARGLGMDYWGHGTSLFVSSASTTAPSVTSGQAGQHHHHHHGAYPYDVPDYAS
notes: Canine scFv (VL-linker-VH); also called P4-09
B7: scFv 32 (scFv)
scFv: QSVLTQPASVSVSLGQTATISCSGESLSKYYAQWFQQKAGQAPVLVIYKDTERPSGIPDRFSGSSSGNTHTLTITGIQAADEADYYCQSYDDNLDGYVFGSGTQLTVLGGGSSRSSSSGGGGSGGGGEVQLVESGGDLVKPGGSLRLSCVGSGFTFSSYWMSWVRQAPGKGLQWIADISDSGSSTDYADAVKGRFTISRDNAKNTLYLQMNSLRAEDTAMYYCARGLGMDYWGHGTSLFVSSASTTAPSVTSGQAGQHHHHHHGAYPYDVPDYAS
notes: Canine scFv (VL-linker-VH); also called P4-11
B8: scFv 30 (scFv)
scFv: B7 scFv with A32T, T75S, I77A, A80E, L94V
notes: Canine scFv (VL-linker-VH); also called P4-02
B9: scFv 27 (scFv)
scFv: B7 scFv with S2P, A8P, A80E, A83G, Y86H, Q88H, D92E
notes: Canine scFv (VL-linker-VH); also called P3-18
B10: scFv 35 (scFv)
scFv: SSVLTQPPSVSVSLGQTATISCSGESLSEYYAQWFQQKAGQAPVLVIYKDTERASGIPDRFSGSSSGNTHTLTISGARAEDEADYYCESAVNSDGIVFGGGTHLTVLGGGSSRSSSSGGGGSGGGGEVQLVESGGDLVKPAGSLRLSCVTSGFTFSSYAMSWVRQAPGKGLQWVGSINSGGSTTSYADAVKGRFTISRDNAKNTVYLQMNSLRAEDTAVYYCARWWDFEYWGQGTLVTVSSESPSPPNLTSGQAGQHHHHHHGAYPYDVPDYAS
notes: Canine scFv (VL-linker-VH); also called P4-08
B11: scFv 6 (scFv)
scFv: QPVLTQPPSVSGSLGQRVTISCTGTNTNIGSGYSVQWYQQLPGESPKPIIYGSSNRPSGVPARFSGSKSGSTGTLTITGIQAEDEADYHCQSYDDSLDGHAVFGGGTQLTILGGGSSRSSSSGGGGSGGGGEVQLVQSGGDLVKPGGSLRLSCVASGFTFSDNYMSWIRQVPGKGLQWVSRISTDGRGTSYADAVKGRFTISRDNAKNTLYLQMNSLRDEDTAVYYCARRSGIWGFDYWGQGALVTVSSESPSPPNLTSGQAGQHHHHHHGAYPYDVPDYAS
notes: Canine scFv (VL-linker-VH); also called scFv_06; P3-28
B12: scFv 34 (scFv)
scFv: B11 scFv with Q1S, P2Y, V3E, G12A, S13A, Q137E, F158L, A243T
notes: Canine scFv (VL-linker-VH); also called P3-44
B13: scFv 4 (scFv)
scFv: QSVLNQPPSVSGALGQTVTISCSGSHTNIGSGFDVQWYQQLPGKSPQTIIYANINRPSGVPARFSGSKSGSTATLTITGVQAEDEADYYCQSYDDNFDYVFGSGTQLTVLGGGSSRSSSSGGGGSGGGGEEQLVEFGGDLVKPGGSLRLSCVVSGFDFSRYGMSWVRQSPGKGLQWVADISYRGTTFYADDVKGRFTVSRDSAKNTLYLEMTSLTVEDTAVYYCANSANWYVSPFDHWGQGTLVTVSSASTTAPSVTSGQAGQHHHHHHGAYPYDVPDYAS
notes: Canine scFv (VL-linker-VH); also called scFv_04; P3-06
B14: scFv 38 (scFv)
scFv: SSVLTQPPSVSVSLGQTATISCSGESLSEYYAQWFQQKAGQAPVLVIYKDTERPSGIPDRFSGSSSGNTHTLTISGARAEDEADYYCASADSSAIPVFGGGTHLTVLGGGSSRSSSSGGGGSGGGGEVQLVESGGDLVKPGGSLRLSCVASGFNFGNYAVSWVRQAPGKGLQWVAGISNDGTITGYTDVVEGRFIISRDNAKNTLYLQMNSLRAEDMAIYYCVAGGFLDYWGQGTLVTVSSASTTAPSVTSGQAGQHHHHHHGAYPYDVPDYAS
notes: Canine scFv (VL-linker-VH); also called P3-17
B15: scFv 3 (scFv)
scFv: QSVLNQPPSVSGALGQTVTISCSGSHTNIGSGFDVQWYQQLPGKSPQTLVYANINRPSGVPARFSGSKSGSTATLTITGVQAEDEADYYCQSYDDNFDGHVFGSGTQLTVLGGGSSRSSSSGGGGSGGGGEVQLVQSGGDLVKPGGSLRLSCVASGFTFSNYTMSWVRQAPGQGLQWVAYINYDGSITYYAEAVKGRFTVSRDNAKNTLYLQMNSLRAEDTAVYFCVKETFMIPTEWGQGTLITVSSASTTAPSVTSGQAGQHHHHHHGAYPYDVPDYAS
notes: Canine scFv (VL-linker-VH); also called scFv_03; P3-05
B16: scFv 40 (scFv)
scFv: QSVLTQPPSVSGSLGQKVTISCTGSSSSVGTHYVGWYQIPPGIGPRTVIYNNDYRPSGVPDRFSGSKSGNSATLTISGLQAEDEADYYCSSWDDSLGAYVLGSGTQLTILGGGSSRSSSSGGGGSGGGGELTLQESGPGLVKPSQTLSLTCAVSGGSVIRGYYWTWIRQRPGRGLEWMGYWAGSTDYNPAFQGRIFITAGTAKNQFSLEMTSMTTDDTAIYYCVGSLRGGWLFDNWGQGTLVTVSSASTTAPSVTSGQAGQHHHHHHGAYPYDVPDYAS
notes: Canine scFv (VL-linker-VH); also called P3-59B
B17: scFv 37 (scFv)
scFv: SSVLTQPPSVSVSLGQTATISCSGESLNDYYAQWFQQKAGQVPVLVIYRDTERPSGIPDRFSGSSSGNTHTLTISGARAEDEADYYCESEVSAGGAVFGEGTHLTVLGGGSSRSSSSGGGGSGGGGEVQLVETGGDLVKPGGSLRLSCVASGFTLRDYSMTWVRQTPEKGLQLVAGISTGGSTTYYIDAVKGRFTISRDNAKNTVYLQMNSLRAEDTAMYHCTTTALGYWGQGTLVTVSSASTTTPSVTSGQAGQHHHHHHGAYPYDVPDYAS
notes: Canine scFv (VL-linker-VH); also called P3-27
B18: scFv 28 (scFv)
scFv: QSALTQPSSVSVSLGQTATISCSGESLNKYYVQWFQQKAGQVPILVIYRDTERPSGIPDRFSGSSSGNTHTLTITGTRAEDEADYYCESLVNDNTYVFGSGTQLTVLGGGSSRSSSSGGGGSGGGGEVQLVETGGDLVKPGGSLRLSCVGSGFTFSSYWMSWVRQAPGKGLQWIADISDSGSSTDYADAVKGRFTISRDNAKNTLYLQMNSLRAEDTAMYYCARGLGMDYWGHGTSLFVSSASTTAPSVTSGQAGQHHHHHHGAYPYDVPDYAS
notes: Canine scFv (VL-linker-VH); also called P3-30
B19: scFv 33 (scFv)
scFv: DIVMTQTPLSLSVSPGEPASISCKASQSLLHSDGNTYLHWYLQKPGQSPQLLIYSVSNRFTGVSDRFSGSGSGTDFTLRISRVEADDTGVYYCGQGTHLPFTFGQGTKLEIKGGSSRSSSSGGGGSGGGGEVQLVESGGDLVKPGGSLRLSCAASGFTFSHYDMNWVRQAPGKGLQWVASIAYDGSNTYYTDAVKGRFTISRDNAKNILFLLVNSLRAEDTAIYYCARGLVYWGQGTLVTVSSASTTAPSVTSGQAGQHHHHHHGAYPYDVPDYAS
notes: Canine scFv (VL-linker-VH); also called P3-07

Target: T1, human CD19 protein with a biotinylated …
Assay: phage ELISA, biotinylated AviTag CD19 on streptavidin wells; signal ratio to FMC63 standard
Excerpt: To identify unique human CD19-binding monoclonal scFv from the panned libraries, individual phage antibody clones were expanded, assessed for binding to CD19 by ELISA, and subjected to nucleotide sequencing to identify those clones that were unique. A total of 84 scFvs were randomly selected from the panned libraries (70 from P3 and 14 from P4).

Row | ELISA hCD19 (ratio FMC63) | Binder
1 | 0.19 ratio to FMC63 | B1
2 | 0.47 ratio to FMC63 | B2
3 | 0.6 ratio to FMC63 | B3
4 | 0.83 ratio to FMC63 | B4
5 | 0.65 ratio to FMC63 | B5
6 | 0.35 ratio to FMC63 | B6
7 | 0.2 ratio to FMC63 | B7
8 | 0.22 ratio to FMC63 | B8
9 | 0.35 ratio to FMC63 | B9
10 | 0.23 ratio to FMC63 | B10
11 | 0.47 ratio to FMC63 | B11
12 | 0.73 ratio to FMC63 | B12
13 | 0.77 ratio to FMC63 | B13
14 | 0.64 ratio to FMC63 | B14
15 | 0.32 ratio to FMC63 | B15
16 | 0.14 ratio to FMC63 | B16
17 | 0.1 ratio to FMC63 | B17
18 | 0.33 ratio to FMC63 | B18
19 | 0.43 ratio to FMC63 | B19

— patent US20240358834A1 (University of Pennsylvania, published 2024)
